Molecular target: the molecule itself
Assay: crystal structure

B1: Wild type CavV 3CLpro (Cavally virus 3C-like protease) (enzyme, Cavally virus (CavV), UniProt F8RL29 1387-1700, looked up)
chain: SAASNPSISHIVLEMPVAINPLIKYTTRTSVSSLRGAVVNGYIYIQRHLFGSKKQEFEACYNNGKGLLNCKNLERSKYDIDSAELIGTLIRIPLHDKHSIPHISIHPDPLSYNGPVTLYLSRYDTELNKDVLCVHTGFMSEGHHDIKTVFGDCGGMLFDPKGRLLGLHCAGSDDVVFMDTTTGKSNIWTSYKLQHPSEIMITLNNEINLPNPANYDFETTKVVYQHPLRNVCATLETLQHLTNKTNAKLPYDSRLLSDFNITAEQYNQYGYYIDYNNFVNNFNRYTTTTIGTKSFETCIKYGLMDNKKPDYYNQ
With B1 the “stoichiometry N” value was 2.
